This is an account of results in patent US20230272110A1 (LAVA THERAPEUTICS N V, published 2023).

The target of assay [1] is T1, human PSMA on PSMA-positive prostate cancer cells (LNCaP, 22Rv1, VCaP, patient-derived tumor cells) (human, UniProt Q04609 1-750). Kind of assay: cell-based or functional assay.
Assay [2] deals with T1, human PSMA on PSMA-positive prostate …. Put plainly: cell-based or functional assay. This is another data set of the same source.
The target is the same in assay [3]. Kind of assay: FACS on PSMA-positive LNCaP cells, detection with polyclonal anti-human IgG.
Description: To test the binding of the molecule to PSMA, a concentration range of antibody was tested for binding to the PSMA positive prostate cancer cell line LNCaP and to the antigen negative cell line PC-3. Detection was performed with a polyclonal anti-human IgG antibody.
Assay [4] has as its target recombinant human PSMA, biotinylated (hPSMA) (human, UniProt Q04609 44-750, biotinylated (site not stated)). Put plainly: BLI, biotinylated hPSMA on streptavidin biosensors, antibody as analyte 3.125-200 nM; mean of n = 3, SD 1.24E-09. (In BLI a coated tip is dipped into the sample, and binding shifts an interference pattern.)
The target in assay [5] is T1, human PSMA on PSMA-positive prostate …. Kind of assay: cell-based or functional assay. The source holds these as a separate data set.

The term EC50 denotes the concentration at which the effect is half-maximal. A low value points to a more potent agent. A word on the Kd: it is the equilibrium constant for the complex coming apart.

T1 sequence (Q04609 whole entry): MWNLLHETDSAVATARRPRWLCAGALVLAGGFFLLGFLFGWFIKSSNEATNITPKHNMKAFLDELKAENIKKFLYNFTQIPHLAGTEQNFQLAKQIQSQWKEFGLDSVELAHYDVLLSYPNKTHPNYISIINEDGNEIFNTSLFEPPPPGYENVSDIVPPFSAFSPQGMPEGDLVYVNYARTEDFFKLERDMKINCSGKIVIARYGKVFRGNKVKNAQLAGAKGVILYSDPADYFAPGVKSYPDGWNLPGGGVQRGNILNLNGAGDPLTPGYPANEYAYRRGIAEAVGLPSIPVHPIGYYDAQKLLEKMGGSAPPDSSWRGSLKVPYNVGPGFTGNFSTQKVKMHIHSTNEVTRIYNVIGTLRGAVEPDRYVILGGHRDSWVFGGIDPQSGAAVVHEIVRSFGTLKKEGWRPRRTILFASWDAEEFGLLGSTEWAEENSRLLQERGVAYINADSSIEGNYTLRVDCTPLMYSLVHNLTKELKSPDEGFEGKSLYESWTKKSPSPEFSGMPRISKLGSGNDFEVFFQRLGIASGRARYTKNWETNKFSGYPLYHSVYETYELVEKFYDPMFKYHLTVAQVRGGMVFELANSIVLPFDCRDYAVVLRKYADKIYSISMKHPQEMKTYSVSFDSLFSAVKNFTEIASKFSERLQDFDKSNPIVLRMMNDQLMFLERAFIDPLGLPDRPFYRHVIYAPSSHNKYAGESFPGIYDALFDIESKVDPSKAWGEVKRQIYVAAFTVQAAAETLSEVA
Sequence of recombinant human PSMA, biotinylated (hPSMA) (Q04609 44-750 limits assumed): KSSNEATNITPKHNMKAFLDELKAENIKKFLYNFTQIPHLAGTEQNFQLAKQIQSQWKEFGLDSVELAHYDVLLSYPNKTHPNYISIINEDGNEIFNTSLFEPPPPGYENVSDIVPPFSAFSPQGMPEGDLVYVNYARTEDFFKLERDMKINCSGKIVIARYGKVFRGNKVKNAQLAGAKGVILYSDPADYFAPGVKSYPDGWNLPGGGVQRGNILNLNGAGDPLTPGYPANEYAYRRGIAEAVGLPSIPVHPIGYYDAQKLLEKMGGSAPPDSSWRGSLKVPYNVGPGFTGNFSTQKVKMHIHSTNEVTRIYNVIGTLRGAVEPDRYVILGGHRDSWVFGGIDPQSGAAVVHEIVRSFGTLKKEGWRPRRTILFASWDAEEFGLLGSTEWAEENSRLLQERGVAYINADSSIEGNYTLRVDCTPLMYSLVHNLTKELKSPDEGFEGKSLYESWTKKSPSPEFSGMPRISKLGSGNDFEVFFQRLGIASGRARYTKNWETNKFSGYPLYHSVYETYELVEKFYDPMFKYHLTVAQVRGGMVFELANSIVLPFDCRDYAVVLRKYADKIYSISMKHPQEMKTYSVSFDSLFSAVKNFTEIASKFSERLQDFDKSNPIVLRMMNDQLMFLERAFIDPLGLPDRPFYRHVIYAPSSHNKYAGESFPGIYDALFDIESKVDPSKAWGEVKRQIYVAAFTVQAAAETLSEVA

B1: LV1044-5C8 (bispecific antibody)
chain: EVQLVESGGGLVQPGGSLTLSCAASRFMISEYSMHWVRQAPGKGLEWVSTINPAGTTDYAESVKGRFTISRDNAKNTLYLQMNSLKPEDTAVYYCDGYGYRGQGTQVTVSSGGGGSEVQLVESGGGLVQAGGSLRLSCAASGRPFSNYAMGWFRQAPGKEREFVAAISWSGGSTSYADSVKGRFTISRDNAKNTVYLQMNSPKPEDTAIYYCAAQFSGADYGFGRLGIRGYEYDYWGQGTQVTVSS
For the molecule B1, in assay [1], the “EC50, Vγ9Vδ2 T cell mediated cytotoxicity of LNCaP cells, 24 h, E:T 1:1” value was determined as 0.0016 nM and the “EC50 for cytotoxicity, LNCaP target cells, 24 h, 7AAD in FACS, E:T 1:1” value (“EC50 for cytotoxicity” for short) amounted to 0.0019 nM.

B2: LV1050-Fc x 5C8var1-Fc (bispecific antibody, V domains shown)
V domain 1: EVQLVESGGGLVQPGGSLRLSCAASRFMISEYSMHWVRQAPGKGLEWVSTINPAGTTDYADSVKGRFTISRDNAKNTLYLQMNSLRAEDTAVYYCDGYGYRGQGTQVTVSS
V domain 2: EVQLLESGGGSVQPGGSLRLSCAASGRPFSNYAMSWFRQAPGKEREFVSAISWSGGSTSYADSVKGRFTISRDNSKNTLYLQMNSLRAEDTAVYYCAAQFSGADYGFGRLGIRGYEYDYWGQGTQVTVSS
notes: Knob-into-hole heterodimer of two VHH-Fc chains; also called 5C8var1-Fc x LV1050-Fc; lead bispecific antibody
Regarding B2, in assay [2], the “Mean EC50, cytotoxicity after 24 hours (CytoTox-Glo), 22Rv1, E:T 1:1” value was 0.013 nM; the “Mean EC50, cytotoxicity after 24 hours (CytoTox-Glo), LNCaP, E:T 1:1” value stood at 0.017 nM; the “Mean EC50, cytotoxicity after 24 hours (CytoTox-Glo), VCaP, E:T 1:1” value is 0.015 nM; the “Mean EC50, degranulation (CD107a) after 4 hours, 22Rv1, E:T 1:1” value was found to be 0.029 nM. Also, in assay [2], the “Mean EC50, degranulation (CD107a) after 4 hours, LNCaP, E:T 1:1” value was found to be 0.016 nM and the “Mean EC50, degranulation (CD107a) after 4 hours, VCaP, E:T 1:1” value came to 0.028 nM. In addition, in assay [1], the “EC50, Vγ9Vδ2 T cell mediated cytotoxicity of LNCaP cells, 24 h, E:T 1:1” value was 0.0105 nM and the “EC50 for cytotoxicity” value worked out at 0.0094 nM. This molecule registered an EC50 in assay [3] of 7.3 nM. Further, the Kd in assay [4] came to 31.6 nM. Also, in assay [5], the “Mean EC50, Vγ9Vδ2-T cell cytotoxicity of LNCaP cells, 24 h, E:T 1:1” value was found to be 0.017 nM and the “Mean EC50, Vγ9Vδ2-T cell cytotoxicity of LNCaP cells, 24 h, E:T 1:10” value is 0.0099 nM.

B3: LV1050-5C8var1 (bispecific antibody)
chain: EVQLVESGGGLVQPGGSLRLSCAASRFMISEYSMHWVRQAPGKGLEWVSTINPAGTTDYADSVKGRFTISRDNAKNTLYLQMNSLRAEDTAVYYCDGYGYRGQGTQVTVSSGGGGSEVQLLESGGGSVQPGGSLRLSCAASGRPFSNYAMSWFRQAPGKEREFVSAISWSGGSTSYADSVKGRFTISRDNSKNTLYLQMNSLRAEDTAVYYCAAQFSGADYGFGRLGIRGYEYDYWGQGTQVTVSSAAAEPEA
For the molecule B3, in assay [1], the “EC50, Vγ9Vδ2 T cell mediated cytotoxicity of LNCaP cells, 24 h, E:T 1:1” value amounted to 0.0022 nM and the “EC50 for cytotoxicity” value came to 0.0019 nM.
